Paper PMC2844702 (Chemistry & biology, 2009)
Values belong to the compound of their own block, whether it stands above or below them.

Experiments:
TrkB [1] = type: binding
TrkB [2] = biological target: TrkB (UniProt Q16620); conditions: cited from earlier work
TrkA 97-120 = TrkA 97-120 (UniProt P04629); conditions: cited from earlier work
TrkA = TrkA (UniProt P04629); conditions: cited from earlier work

Sequence of UniProt Q16620 (Q16620 32-430): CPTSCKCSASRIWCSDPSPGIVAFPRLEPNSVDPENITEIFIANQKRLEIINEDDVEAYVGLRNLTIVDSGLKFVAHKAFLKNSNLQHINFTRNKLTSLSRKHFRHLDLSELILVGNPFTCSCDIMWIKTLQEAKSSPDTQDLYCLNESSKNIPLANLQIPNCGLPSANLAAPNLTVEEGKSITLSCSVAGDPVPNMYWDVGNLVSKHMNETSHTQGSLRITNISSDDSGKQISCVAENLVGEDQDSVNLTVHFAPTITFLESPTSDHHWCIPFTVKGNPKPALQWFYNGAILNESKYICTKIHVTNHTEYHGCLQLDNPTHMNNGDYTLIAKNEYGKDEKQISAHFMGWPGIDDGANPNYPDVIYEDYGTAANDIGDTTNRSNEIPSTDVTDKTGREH

Kd (TrkB [1]): ~14000 nM
Compound: CN(C)CCC=C1c2ccccc2CCc2ccccc21 [amitriptyline]

Compound: BDNF (from UniProt P23560)
Kd (TrkB [2]): 1 nM

Compound: NGF (from UniProt P01139)
Kd (TrkA 97-120): 1.3 nM | Kd (TrkA): 1 nM
